Here are results for two substances from PMC5621659.

Holding throughout (assay): ELISA
In general terms: An ELISA detects its analyte on a solid surface through an enzyme-linked reagent.

In assay [1] the target is recombinant human insulin receptor (IR) (human) (UniProt P06213).
In assay [2] the target is C-terminal truncated apoE4 (aa1-186).
Assay [3] deals with C-terminal truncated apoE3 (aa1-186).

Regarding “recombinant human apoE4 (from UniProt P02649 19-317) (natural protein)”, in assay [1], the percent reduction of insulin-IR binding at 16 μg/ml was 50%.
As for “recombinant human insulin receptor (IR) (from UniProt P06213 28-1382)”, the percent reduction of binding against FL apoE in assay [2] amounted to 30%; in assay [3] it was 50%.
